Article PMC11723632 (PLOS Pathogens, 2024)

B1: Nanosota-EB1-His (VHH)
VHH: QVQLQESGGGQVQAGGSLRLSCAASGSTSVIYAMGWYRQAPGKQRELVAAITRGVGSTNYADSVKGRFTISRDNAKNTMYLQMNSLKPEDTAVYYCNARLLVAPPPYEYDYWGQGTQVTVSS
B2: Nanosota-EB2-His (VHH)
VHH: QVQLQESGGGVVQAGGSLRLSCSASGRTFSNYAMAWFRQAPGKDREFAAGINYNGERTAYADSVKGRFTISRDDAKNTVYLQMNSLKPEDTAVYSCAARPWSIANLAYTYDSWGQGTQVTVSS

Molecular target: EBOV sGP (secreted form of GP) (Zaire ebolavirus, Mayinga-76 …, UniProt P60170)
Experiment: ELISA
Details: both partners purified

Sequence of EBOV sGP (secreted form of GP) (P60170 33-305): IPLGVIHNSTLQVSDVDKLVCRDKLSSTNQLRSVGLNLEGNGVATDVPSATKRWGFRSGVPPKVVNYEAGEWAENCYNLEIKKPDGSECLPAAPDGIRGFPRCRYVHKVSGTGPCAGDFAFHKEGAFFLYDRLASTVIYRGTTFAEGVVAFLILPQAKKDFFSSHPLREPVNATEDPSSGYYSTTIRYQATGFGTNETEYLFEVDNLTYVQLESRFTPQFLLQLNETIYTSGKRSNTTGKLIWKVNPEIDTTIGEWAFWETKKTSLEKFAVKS

| Binder | binding result |
| --- | --- |
| B1 | binds |
| B2 | no binding |
